From article PMC8948278, “Antibody-dependent enhancement (ADE) of SARS-CoV-2 pseudoviral infection requires FcγRIIB and virus-antibody complex with bivalent interaction” (Communications Biology, 2022)

Biological target: Recombinant SARS-CoV-2 S trimer protein (ACRO Biosystems SPN-C52H9) (SARS-CoV-2, Wuhan-Hu-1 (reference spike), UniProt P0DTC2)
Assay: SPR
Details: both partners purified

B1: KIH format bivalent MW05 (MW05/KIH) (antibody, V domains shown)
VH: EVQLVQSGAEVKKPGSSVKVSCKASGGTFSSYAISWVRQAPGQGLEWMGRIIPIFGSSNYAQKFQGRVTITADESTSTAYMELSSLRSEDTAVYYCAESPLGGGSGYSVSWFDPWGQGTLVTVSS
VL: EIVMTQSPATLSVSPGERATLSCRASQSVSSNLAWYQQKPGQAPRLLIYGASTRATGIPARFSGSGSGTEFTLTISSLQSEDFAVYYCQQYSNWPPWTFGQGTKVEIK
notes: also called knob-in-hole format bivalent mAb; copies: + + 2
koff: 8.52e-05 s⁻¹

B2: KIH format bivalent MW07 (MW07/KIH) (antibody, V domains shown)
VH: EVQLVESGGGLVQPGGSLRLSCAASGFTFSSYWMSWVRQAPGKGLEWVANIKQDASEKYYLDSLKGRFTISRDNAKNSLYLQMNSLRAEDTAVYYCARDLGILWFGDYPWGQGTLVTVSS
VL: DIQMTQSPSSLSASVGDRVTITCRASQGISNSLAWYQQKPGKAPKLLLYAASTLESGVPSRFSGSGSGTDFTLTISSLQPEDFATYYCQQFYSTPRTFGQGTKVEIK
notes: as for B1
koff: 3.02e-05 s⁻¹
